Our source for the stoichiometry N values is publication doi:10.1101/2022.08.26.505362.

Test [1] addresses fibrillin (molecule within bovine ciliary zonule microfibrils) (bovine (endogenous in ciliary zonule)) (UniProt P98133). Description: cryo-EM structure. The settings on record: scale: fibrillin monomers per microfibril repeat.
The target of test [2] is fibrillin microfibrils purified from bovine ciliary zonules (bovine (endogenous in ciliary zonule)) (UniProt P98133). Description: STEM mass mapping. The conditions noted are these: scale: molecules of LTBP-1 per microfibril repeat.
fibrillin microfibrils purified from bovine ciliary zonules (bovine (endogenous in ciliary zonule)), sequence (P98133 25-2871): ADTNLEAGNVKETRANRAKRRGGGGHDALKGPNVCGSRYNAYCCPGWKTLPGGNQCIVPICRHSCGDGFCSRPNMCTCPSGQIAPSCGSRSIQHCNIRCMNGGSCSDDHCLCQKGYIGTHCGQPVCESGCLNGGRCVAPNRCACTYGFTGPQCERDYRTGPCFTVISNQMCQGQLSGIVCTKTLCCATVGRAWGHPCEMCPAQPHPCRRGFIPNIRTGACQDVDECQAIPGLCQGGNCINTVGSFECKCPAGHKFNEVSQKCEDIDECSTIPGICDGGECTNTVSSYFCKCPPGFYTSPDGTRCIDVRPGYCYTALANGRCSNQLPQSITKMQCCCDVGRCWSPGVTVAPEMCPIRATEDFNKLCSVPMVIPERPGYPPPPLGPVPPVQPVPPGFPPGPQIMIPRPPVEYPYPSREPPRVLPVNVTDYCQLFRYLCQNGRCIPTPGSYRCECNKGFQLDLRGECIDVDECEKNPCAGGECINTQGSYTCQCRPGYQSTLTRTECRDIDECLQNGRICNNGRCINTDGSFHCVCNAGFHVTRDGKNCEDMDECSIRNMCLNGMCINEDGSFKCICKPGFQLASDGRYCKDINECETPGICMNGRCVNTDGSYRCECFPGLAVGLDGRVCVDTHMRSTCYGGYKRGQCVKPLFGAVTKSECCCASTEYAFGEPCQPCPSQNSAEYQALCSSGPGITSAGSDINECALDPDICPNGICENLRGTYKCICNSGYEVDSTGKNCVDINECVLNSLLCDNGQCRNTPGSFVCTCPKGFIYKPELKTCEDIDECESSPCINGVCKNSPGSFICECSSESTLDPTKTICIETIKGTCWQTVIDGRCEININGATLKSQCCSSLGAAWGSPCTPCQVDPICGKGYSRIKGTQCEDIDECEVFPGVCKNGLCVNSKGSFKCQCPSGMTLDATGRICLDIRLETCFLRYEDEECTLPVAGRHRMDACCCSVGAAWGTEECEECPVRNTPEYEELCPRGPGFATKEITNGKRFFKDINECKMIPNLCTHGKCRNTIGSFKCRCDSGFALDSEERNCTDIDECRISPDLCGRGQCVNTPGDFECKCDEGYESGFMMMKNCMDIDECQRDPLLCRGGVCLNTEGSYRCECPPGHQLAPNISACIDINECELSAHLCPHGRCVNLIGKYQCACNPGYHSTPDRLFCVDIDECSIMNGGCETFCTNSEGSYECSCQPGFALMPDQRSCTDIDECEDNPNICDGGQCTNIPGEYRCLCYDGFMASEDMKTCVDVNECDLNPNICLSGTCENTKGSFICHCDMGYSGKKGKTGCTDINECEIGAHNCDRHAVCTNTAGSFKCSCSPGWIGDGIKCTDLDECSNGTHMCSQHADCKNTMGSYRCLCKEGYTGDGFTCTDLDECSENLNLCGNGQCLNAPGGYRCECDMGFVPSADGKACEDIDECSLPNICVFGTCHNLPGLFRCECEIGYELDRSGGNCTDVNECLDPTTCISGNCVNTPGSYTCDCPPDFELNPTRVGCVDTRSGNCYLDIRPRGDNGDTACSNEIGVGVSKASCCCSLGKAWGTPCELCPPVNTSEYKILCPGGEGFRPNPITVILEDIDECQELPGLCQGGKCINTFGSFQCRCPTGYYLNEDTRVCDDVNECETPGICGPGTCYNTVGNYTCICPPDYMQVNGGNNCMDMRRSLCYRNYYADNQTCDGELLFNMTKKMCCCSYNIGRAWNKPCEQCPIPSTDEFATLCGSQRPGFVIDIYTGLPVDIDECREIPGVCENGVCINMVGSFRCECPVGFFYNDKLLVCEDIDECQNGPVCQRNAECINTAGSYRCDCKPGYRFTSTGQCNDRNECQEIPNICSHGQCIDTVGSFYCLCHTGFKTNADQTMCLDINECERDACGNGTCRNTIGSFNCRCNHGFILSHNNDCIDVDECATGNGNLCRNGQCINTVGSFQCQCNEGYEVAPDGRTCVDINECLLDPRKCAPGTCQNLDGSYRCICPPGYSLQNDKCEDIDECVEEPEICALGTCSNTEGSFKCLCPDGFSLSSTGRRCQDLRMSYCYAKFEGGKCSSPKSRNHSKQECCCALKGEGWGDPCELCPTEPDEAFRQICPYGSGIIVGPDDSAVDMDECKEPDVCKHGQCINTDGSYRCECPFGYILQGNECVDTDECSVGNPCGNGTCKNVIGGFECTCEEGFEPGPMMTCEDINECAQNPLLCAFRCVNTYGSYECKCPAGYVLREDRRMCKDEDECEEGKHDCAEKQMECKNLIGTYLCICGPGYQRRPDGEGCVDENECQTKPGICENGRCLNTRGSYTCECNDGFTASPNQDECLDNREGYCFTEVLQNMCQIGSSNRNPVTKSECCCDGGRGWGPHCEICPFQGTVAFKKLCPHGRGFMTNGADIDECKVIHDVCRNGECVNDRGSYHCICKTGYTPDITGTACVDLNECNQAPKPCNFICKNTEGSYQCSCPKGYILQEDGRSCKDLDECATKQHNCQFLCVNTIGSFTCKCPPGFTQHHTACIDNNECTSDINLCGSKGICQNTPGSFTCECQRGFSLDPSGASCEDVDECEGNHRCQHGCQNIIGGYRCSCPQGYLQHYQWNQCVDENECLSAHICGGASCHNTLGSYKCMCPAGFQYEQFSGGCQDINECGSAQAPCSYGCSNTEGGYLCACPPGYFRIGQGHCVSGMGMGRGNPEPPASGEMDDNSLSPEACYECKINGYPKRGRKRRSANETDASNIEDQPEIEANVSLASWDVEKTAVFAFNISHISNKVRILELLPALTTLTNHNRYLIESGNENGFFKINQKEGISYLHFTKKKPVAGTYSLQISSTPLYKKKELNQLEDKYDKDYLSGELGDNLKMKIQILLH

fibrillin (molecule within bovine ciliary zonule microfibrils), sequence (P98133 25-2871): as above

As to “fibrillin (molecule within bovine ciliary zonule microfibrils) (from UniProt P98133 25-2871) (natural protein)”, the stoichiometry N in test [1] worked out at 8. In test [2], “full-length LTBP-1 (latent TGFβ-binding protein-1) (from UniProt Q14766 24-1721) (natural protein)” showed a stoichiometry N of 2.

What is called stoichiometry N is a count of units in the complex or per binding partner.
